In patent publication EP0832229B1:
Several values for one entry are separate records, joined by “and”; a condition that tells them apart may be missing. Equal entries are not always repeated.

Columns and labels:
[1] = biological target: CD40/Fc fusion protein (extracellular domain of human CD40 fused to the Fc domain of human IgG1) (human) (UniProt P25942); experiment: BIAcore SPR, CD40/Fc captured by goat anti-human IgG1 Fc; experiment 1
[2] = biological target: CD40/Fc fusion protein (extracellular domain of human CD40 fused to the Fc domain of human IgG1) (human) (UniProt P25942); experiment: BIAcore SPR, CD40/Fc captured by goat anti-human IgG1 Fc; K1 (site 1); experiment 1
[3] = biological target: CD40/Fc fusion protein (extracellular domain of human CD40 fused to the Fc domain of human IgG1) (human) (UniProt P25942); experiment: BIAcore SPR, CD40/Fc captured by goat anti-human IgG1 Fc; K2 (site 2); experiment 1
[4] = biological target: CD40/Fc fusion protein (extracellular domain of human CD40 fused to the Fc domain of human IgG1) (human) (UniProt P25942); experiment: BIAcore SPR, CD40/Fc captured by goat anti-human IgG1 Fc; experiment 2
[5] = biological target: CD40/Fc fusion protein (extracellular domain of human CD40 fused to the Fc domain of human IgG1) (human) (UniProt P25942); experiment: BIAcore SPR, CD40/Fc captured by goat anti-human IgG1 Fc; K1 (site 1); experiment 2
[6] = biological target: CD40/Fc fusion protein (extracellular domain of human CD40 fused to the Fc domain of human IgG1) (human) (UniProt P25942); experiment: BIAcore SPR, CD40/Fc captured by goat anti-human IgG1 Fc; K2 (site 2); experiment 2
CD40 on B cells = CD40 on B cells (UniProt P25942); experiment: cell-based or functional assay
[7] = biological target: CD40/Fc fusion protein (extracellular domain of human CD40 fused to the Fc domain of human IgG1) (human) (UniProt P25942); experiment: biosensor (BIAcore) assay substantially as in Example 3, CD40/Fc captured
[8] = biological target: CD40/Fc fusion protein (extracellular domain of human CD40 fused to the Fc domain of human IgG1) (human) (UniProt P25942); experiment: BIAcore SPR substantially as in Example 3; K1; average of two preparations
[9] = biological target: CD40/Fc fusion protein (extracellular domain of human CD40 fused to the Fc domain of human IgG1) (human) (UniProt P25942); experiment: BIAcore SPR substantially as in Example 3; K2; average of two preparations

Site 1 (mol/mol CD40/Fc) (mol/mol CD40/Fc) [1]	Site2 (mol/mol CD40/Fc) (mol/mol CD40/Fc) [1]	Ka [2] [M⁻¹]	Ka [3] [M⁻¹]	Site2 (mol/mol CD40/Fc) (mol/mol CD40/Fc) [4]	Molecule	also measured
0.013	0.049	1.6e+11	7e+08	–	dimeric human CD40L (CD40L/Fc) (from UniProt P27548 47-260) (Fc fusion)	–
–	–	–	–	1.2 and 1.27	monomeric human CD40L (comprising solely the portion of the extracellular domain most homologous to TNF) (from UniProt P27548 112-260) (ligand)	–
0.04	0.68	5e+09	7.5e+07	0.41	trimeric human CD40L (CD40L/"leucine zipper"): oligomerizing zipper followed by the extracellular region of human CD40L, amino acids 51-261 (ligand)	Site 1 (mol/mol CD40/Fc) (mol/mol CD40/Fc) [4]: 0.26; Ka [5]: 6.6e+08 M⁻¹; Ka [6]: 2.6e+07 M⁻¹
0.02	0.44	6e+10	1.6e+08	–	trimeric murine CD40L (oligomerizing zipper, Flag octapeptide, extracellular region of murine CD40L) (from UniProt P27548 47-260) (ligand)	–
–	–	–	–	–	wild type CD40 ligand/zipper domain fusion protein (WT) expressed in yeast (ligand, part only; not given: leucine zipper sequence, part only) chain, part: MQRGDEDPQIAAHVVSEANSNAASVLQWAKKGYYTMKSNLVMLENGKQLTVKREGLYYVYTQVTFCSNREPSSQRPFIVGLWLKPSSGSERILLKAANTHSSSQLCEQQSVHLGGVFELQAGASVFVNVTEASQVIHRVGFSSFGLLKL	B-cell proliferation (U/µg), Experiment 1 (CD40 on B cells): 77 U/µg; B-cell proliferation (U/µg), Experiment 2 (CD40 on B cells): 15 U/µg; Ka [7]: 7.7e+07 M⁻¹; Ka [8]: 7.4e+08 M⁻¹; Ka [9]: 3e+07 M⁻¹
